The values below are quoted from earlier work in publication PMC10653114.

By pKa is commonly meant the negative logarithm of the acid dissociation constant.

A value given as a limit tells only on which side of the number the result lay.

One series has as its target Glu60 (UniProt position 107, IFSNREGKLPG). As to conditions: 298 K; Conc. 0.0 (unit not given; Na+/Cl–).
The target of a further series is Asp101 (UniProt position 148, IYKTTDHYQTF). The note with it: 298 K; Conc. 0.0 (unit not given; Na+/Cl–).
Another series concerns the target Asp44 (UniProt position 91, KGNLADVAPGK). As to conditions: 298 K; Conc. 0.0 (unit not given; Na+/Cl–).
The target of another series is Asp54 (UniProt position 101, KSIGGDIFSNR). The note with it: 298 K; Conc. 0.0 (unit not given; Na+/Cl–).
The next series has as its target Asp86 (UniProt position 133, GFRNSDRILYS). The note with it: 298 K; Conc. 0.0 (unit not given; Na+/Cl–).
Another series has as its target Asp93 (UniProt position 140, ILYSSDWLIYK). The note with it: 298 K; Conc. 0.0 (unit not given; Na+/Cl–).
The next series has as its target Glu29 (UniProt position 76, YITKSEAQALG). As to conditions: 298 K; Conc. 0.0 (unit not given; Na+/Cl–).
A further series deals with Asp8 (UniProt position 55, VINTFDGVADY). As to conditions: 298 K; Conc. 0.0 (unit not given; Na+/Cl–).
For another series, the target named is Asp22 (UniProt position 69, YHKLPDNYITK). The note with it: 298 K; Conc. 0.0 (unit not given; Na+/Cl–).
In the next series the target is Asp75 (UniProt position 122, TWREADINYTS). As to conditions: 298 K; Conc. 0.0 (unit not given; Na+/Cl–).
The next series deals with Asp12 (UniProt position 59, FDGVADYLQTY). The note with it: 298 K; Conc. 0.0 (unit not given; Na+/Cl–).
For a further series, the target named is Glu73 (UniProt position 120, GRTWREADINY). As to conditions: 298 K; Conc. 0.0 (unit not given; Na+/Cl–).
The target of the next series is Asp30 (UniProt position 50, NQCSTDSGYSM). In words: not stated (the title of ref 83 mentions NMR pH-dependent chemical shifts). The note with it: 313 K; Conc. 0.0 (unit not given; Na+/Cl–).
Another series addresses Lys61 (UniProt position 81, CNTMIKKIVTL). Described as above. As to conditions: 313 K; Conc. 0.0 (unit not given; Na+/Cl–).
The next series concerns the target Lys94 (UniProt position 114, NGFSNKCSSL-). The series is described as above. As to conditions: 313 K; Conc. 0.0 (unit not given; Na+/Cl–).
Another series concerns the target Asp21 (UniProt position 41, VSILSDASFNQ). The description is as above. The note with it: 313 K; Conc. 0.0 (unit not given; Na+/Cl–).
The next series concerns the target Asp72 (UniProt position 92, NPPNCDLTVPT). Described as above. As to conditions: 313 K; Conc. 0.0 (unit not given; Na+/Cl–).
A further series addresses Lys26 (UniProt position 61, YFYNAKAGLCQ). Description: NMR (only per the titles of cited refs 78 and 79; not given). As to conditions: 308 K; Conc. 0.0 (unit not given; Na+/Cl– counter-ions in the simulation).
The next series has as its target Glu49 (UniProt position 84, NFKSAEDCMRT). Described as above. As to conditions: 308 K; Conc. 0.0 (unit not given; Na+/Cl– counter-ions in the simulation).
In another series the target is Lys15 (UniProt position 50, YTGPCKARIIR). The description is as above. The note with it: 308 K; Conc. 0.0 (unit not given; Na+/Cl– counter-ions in the simulation).
For the next series, the target named is Lys46 (UniProt position 81, KRNNFKSAEDC). Described as above. As to conditions: 308 K; Conc. 0.0 (unit not given; Na+/Cl– counter-ions in the simulation).
Another series concerns the target Glu7 (UniProt position 42, PDFCLEPPYTG). The description is as above. The note with it: 308 K; Conc. 0.0 (unit not given; Na+/Cl– counter-ions in the simulation).
Series [1] deals with Lys41 (UniProt position 76, GGCRAKRNNFK). The series is described as above. As to conditions: 308 K; Conc. 0.0 (unit not given; Na+/Cl– counter-ions in the simulation).
The next series concerns the target Asp50 (UniProt position 85, FKSAEDCMRTC). The description is as above. As to conditions: 308 K; Conc. 0.0 (unit not given; Na+/Cl– counter-ions in the simulation).
The target of the next series is Asp3 (UniProt position 38, KAQRPDFCLEP). Described as above. The note with it: 308 K; Conc. 0.0 (unit not given; Na+/Cl– counter-ions in the simulation).
A further series deals with Lys29 (UniProt position 33, SKEELKLLLQT). The note with it: 300 K; Conc. 0.00 (unit not given; Na+/Cl–); apo (Ca2+-free), inferred from the apo structure 1CLB used.
The next series concerns the target Lys7 (UniProt position 11, SPEELKGIFEK). As to conditions: 300 K; Conc. 0.00 (unit not given; Na+/Cl–); apo (Ca2+-free), inferred from the apo structure 1CLB used.
The target of the next series is Lys71 (UniProt position 75, FQVLVKKISQ-). As to conditions: 300 K; Conc. 0.00 (unit not given; Na+/Cl–); apo (Ca2+-free), inferred from the apo structure 1CLB used.
The target in series [2] is Lys41 (UniProt position 45, FPSLLKGPSTL). The note with it: 300 K; Conc. 0.00 (unit not given; Na+/Cl–); apo (Ca2+-free), inferred from the apo structure 1CLB used.
A further series has as its target Lys72 (UniProt position 76, QVLVKKISQ--). The note with it: 300 K; Conc. 0.00 (unit not given; Na+/Cl–); apo (Ca2+-free), inferred from the apo structure 1CLB used.
For a further series, the target named is Lys12 (UniProt position 16, KGIFEKYAAKE). The note with it: 300 K; Conc. 0.00 (unit not given; Na+/Cl–); apo (Ca2+-free), inferred from the apo structure 1CLB used.
For a further series, the target named is Lys16 (UniProt position 20, EKYAAKEGDPN). As to conditions: 300 K; Conc. 0.00 (unit not given; Na+/Cl–); apo (Ca2+-free), inferred from the apo structure 1CLB used.
Another series concerns the target Lys25 (UniProt position 29, PNQLSKEELKL). As to conditions: 300 K; Conc. 0.00 (unit not given; Na+/Cl–); apo (Ca2+-free), inferred from the apo structure 1CLB used.
Another series deals with Lys55 (UniProt position 59, FEELDKNGDGE). The note with it: 300 K; Conc. 0.00 (unit not given; Na+/Cl–); apo (Ca2+-free), inferred from the apo structure 1CLB used.
Another series deals with Asp43 (UniProt position 417, WTLTFDFPSGQ). As to conditions: 298 K; Conc. 0.10 (unit not given; K+/Cl–).

In the case of Barnase (Bacillus amyloliquefaciens), the pKa is given as 3.4 ± 0.1 with Glu60; 2.0 ± 0.2 in the series with Asp101; 3.6 ± 0.1 with Asp44; 2.2 ± 0.3 with Asp54; 4.2 ± 0.1 with Asp86; <2.0 in the series with Asp93. The pKa is on record as 3.75 ± 0.05 with Glu29; 3.1 ± 0.2 with Asp8; 3.3 ± 0.1 in the series with Asp22; 3.1 ± 0.2 with Asp75; 3.6 ± 0.2 with Asp12; 2.1 ± 0.1 with Glu73.
As to “Beta-cryptogein (beta-elicitin) (Phytophthora cryptogea)”, the pKa was 2.51 ± 0.09 with Asp30; 10.1 with Lys61; 9.4 with Lys94; 2.49 ± 0.05 in the series with Asp21; 2.61 ± 0.15 in the series with Asp72.
With “Bovine pancreatic trypsin inhibitor (BPTI) (Bos taurus)”, the pKa with Lys26 is given as 10.60; with Glu49 it was 3.75 ± 0.05; with Lys15, 10.60; in the series with Lys46 it was 10.30; in the series with Glu7 it was 3.65 ± 0.05; with Lys41 [1], 11.20. Moreover, the values for the pKa with Asp50 and with Asp3 were 3.20 ± 0.20 and 3.25 ± 0.15, respectively.
Calbindin D9k (apo) (Bos taurus): the pKa with Lys29 was 11.81; with Lys7, 12.53; with Lys71 it was 11.22; in the series with Lys41 [2], 11.02; with Lys72, 11.95; with Lys12 it was 12.02. Moreover, the pKa in the series with Lys16 was 11.90; with Lys25, 13.21; with Lys55 it was 12.95.
Turning to “Highly charge-depleted protein (PDB 6QFS), S43D variant (Cellulomonas fimi (parent domain; not stated in the article); S43D (on the 6QFS charge-depleted background; background substitutions not stated))”, the pKa with Asp43 was 4.37 ± 0.01.
